The supplement of paper PMC5998384

Experiments:
[1] = system: HeLa Kyoto; assay: melting temperature (median over replicates), in situ; higher = more thermally stable
[2] = system: HeLa Kyoto; assay: solubility in G1/S (NP-40 vs SDS abundance) (log2 ratio); higher = more soluble; conditions: cell cycle stage: G1/S
[3] = system: HeLa Kyoto; assay: solubility change mitosis vs G1/S (difference of NP-40 vs SDS log2 ratios) (log2 ratio difference); higher = more soluble in mitosis
[4] = system: HeLa Kyoto; assay: thermal stability score vs G1/S (z-score of summed log2 fold changes over temperatures); higher = more thermally stable than in G1/S
[5] = cell cycle stage: early G1 (4.5 h after nocodazole release)
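Throughout, for melting temperature (median over replicates), in situ: HeLa Kyoto cells synchronized by double thymidine or nocodazole block, proteins quantified by TMT10plex mass spectrometry, three independent biological replicates.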
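Throughout, for solubility change mitosis vs G1/S (difference of NP-40 vs SDS log2 ratios): synchronized HeLa Kyoto cells (double thymidine block for G1/S, nocodazole release for mitosis), protein amounts in NP-40 versus SDS lysates quantified by mass spectrometry, three biological replicates.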
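Throughout, for solubility in G1/S (NP-40 vs SDS abundance): HeLa Kyoto cells arrested at G1/S by double thymidine block, proteins quantified by TMT10plex mass spectrometry in mild NP-40 versus SDS extracts, three biological replicates.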
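Throughout, for thermal stability score vs G1/S (z-score of summed log2 fold changes over temperatures): synchronized HeLa Kyoto cells, proteins quantified by TMT10plex mass spectrometry, three biological replicates, mitosis taken 0.5 h after nocodazole release, G1/S directly after double thymidine block.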

Sequence | melting temperature ([1]; cell cycle stage: G1/S) [°C] | melting temperature ([1]; cell cycle stage: mitosis) [°C] | solubility in G1/S (log2) [2] | solubility change mitosis (log2) [3] | thermal stability score [4, 5] | thermal stability score ([4]; cell cycle stage: mitosis)
MPGPRRPAGSRLRLLLLLLLPPLLLLLRGSHAGNLTVAVVLPLANTSYPWSWARVGPAVELALAQVKARPDLLPGWTVRTVLGSSENALGVCSDTAAPLAAVDLKWEHNPAVFLGPGCVYAAAPVGRFTAHWRVPLLTAGAPALGFGVKDEYALTTRAGPSYAKLGDFVAALHRRLGWERQALMLYAYRPGDEEHCFFLVEGLFMRVRDRLNITVDHLEFAEDDLSHYTRLLRTMPRKGRVIYICSSPDAFRTLMLLALEAGLCGEDYVFFHLDIFGQSLQGGQGPAPRRPWERGDGQDVSARQAFQAAKIITYKDPDNPEYLEFLKQLKHLAYEQFNFTMEDGLVNTIPASFHDGLLLYIQAVTETLAHGGTVTDGENITQRMWNRSFQGVTGYLKIDSSGDRETDFSLWDMDPENGAFRVVLNYNGTSQELVAVSGRKLNWPLGYPPPDIPKCGFDNEDPACNQDHLSTLEVLALVGSLSLLGILIVSFFIYRKMQLEKELASELWRVRWEDVEPSSLERHLRSAGSRLTLSGRGSNYGSLLTTEGQFQVFAKTAYYKGNLVAVKRVNRKRIELTRKVLFELKHMRDVQNEHLTRFVGACTDPPNICILTEYCPRGSLQDILENESITLDWMFRYSLTNDIVKGMLFLHNGAICSHGNLKSSNCVVDGRFVLKITDYGLESFRDLDPEQGHTVYAKKLWTAPELLRMASPPVRGSQAGDVYSFGIILQEIALRSGVFHVEGLDLSPKEIIERVTRGEQPPFRPSLALQSHLEELGLLMQRCWAEDPQERPPFQQIRLTLRKFNRENSSNILDNLLSRMEQYANNLEELVEERTQAYLEEKRKAEALLYQILPHSVAEQLKRGETVQAEAFDSVTIYFSDIVGFTALSAESTPMQVVTLLNDLYTCFDAVIDNFDVYKVETIGDAYMVVSGLPVRNGRLHACEVARMALALLDAVRSFRIRHRPQEQLRLRIGIHTGPVCAGVVGLKMPRYCLFGDTVNTASRMESNGEALKIHLSSETKAVLEEFGGFELELRGDVEMKGKGKVRTYWLLGERGSSTRG [NPR1] | 52.4 | 51.4 | 0.0297 | -0.0544 | 0.231 | -0.0841
MPGRAPLRTVPGALGAWLLGGLWAWTLCGLCSLGAVGAPRPCQAPQQWEGRQVMYQQSSGRNSRALLSYDGLNQRVRVLDERKALIPCKRLFEYILLYKDGVMFQIDQATKQCSKMTLTQPWDPLDIPQNSTFEDQYSIGGPQEQITVQEWSDRKSARSYETWIGIYTVKDCYPVQETFTINYSVILSTRFFDIQLGIKDPSVFTPPSTCQMAQLEKMSEDCSW [EPDR1] | 56.1 | 55 | 0.348 | -0.162 | -1.3 | -2.65
MPGSAAKGSELSERIESFVETLKRGGGPRSSEEMARETLGLLRQIITDHRWSNAGELMELIRREGRRMTAAQPSETTVGNMVRRVLKIIREEYGRLHGRSDESDQQESLHKLLTSGGLNEDFSFHYAQLQSNIIEAINELLVELEGTMENIAAQALEHIHSNEVIMTIGFSRTVEAFLKEAARKRKFHVIVAECAPFCQGHEMAVNLSKAGIETTVMTDAAIFAVMSRVNKVIIGTKTILANGALRAVTGTHTLALAAKHHSTPLIVCAPMFKLSPQFPNEEDSFHKFVAPEEVLPFTEGDILEKVSVHCPVFDYVPPELITLFISNIGGNAPSYIYRLMSELYHPDDHVL [EIF2B2] | 51.4 | 50.5 | 0.101 | -0.191 | 1.74 | 0.854
MPHLENVVLCRESQVSILQSLFGERHHFSFPSIFIYGHTASGKTYVTQTLLKTLELPHVFVNCVECFTLRLLLEQILNKLNHLSSSEDGCSTEITCETFNDFVRLFKQVTTAENLKDQTVYIVLDKAEYLRDMEANLLPGFLRLQELADRNVTVLFLSEIVWEKFRPNTGCFEPFVLYFPDYSIGNLQKILSHDHPPEYSADFYAAYINILLGVFYTVCRDLKELRHLAVLNFPKYCEPVVKGEASERDTRKLWRNIEPHLKKAMQTVYLREISSSQWEKLQKDDTDPGQLKGLSAHTHVELPYYSKFILIAAYLASYNPARTDKRFFLKHHGKIKKTNFLKKHEKTSNHLLGPKPFPLDRLLAILYSIVDSRVAPTANIFSQITSLVTLQLLTLVGHDDQLDGPKYKCTVSLDFIRAIARTVNFDIIKYLYDFL [ORC5] | 47.1 | 49 | -0.362 | -0.126 | 0.957 | 1.24
MPKAKGKTRRQKFGYSVNRKRLNRNARRKAAPRIECSHIRHAWDHAKSVRQNLAEMGLAVDPNRAVPLRKRKVKAMEVDIEERPKELVRKPYVLNDLEAEASLPEKKGNTLSRDLIDYVRYMVENHGEDYKAMARDEKNYYQDTPKQIRSKINVYKRFYPAEWQDFLDSLQKRKMEVE [NOP16] | 57.3 | 54.2 | -1.15 | 1.22 | -0.631 | -6.32
